The values below come from patent US20190211104A1 (Merck KGaA, published 2019).

The target in the test is T1, carboxyterminal peptide of PD-L1 (SEQ ID NO: 1, RLRKGRMMDVKKCGIQDTNSKKQSDTHLEET) (human).
T1 construct: The immunogen was the KLH-coupled peptide; also called immunogen
T1 peptide: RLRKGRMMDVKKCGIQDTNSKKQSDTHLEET
The test can be described thus: ELISA, wells coated with the peptide immunogen. (In an ELISA, binding on a coated surface is turned into a signal by an enzyme label.)

B1: inventive antibody clone MKP1A07310 (rabbit monoclonal recombinant anti-PD-L1 antibody) (antibody, V domains shown)
VH: QEQLVESGGGLVTPGGSLTLTCTVSTIDLSTFAISWVRQAPGKGLEWIGTINTDLTTYYVNWAKGRFTISKTSSTTVDLKMTGLTIEDTATYFCARKLFGNGNVWGPGTLVTVSS
VL: QVLTQTPSPVSASVGSTVTINCQASQSLHRNNYLSWFQQKPGQPPKQLIYQASTLASGVSSRFSGSGSGTQFTLTISDVVCDDAATYYCLGGVSGGPYPFGGGTEVVVKG
notes: Rabbit monoclonal, produced as recombinant antibody in HEK-293 cells; VH 110, VL 111) and calls clone MKP1A07310 'the inventive antibody'; also called MKP1A7310; MKP-1A-73-10
With B1, the binding result was “binds”.
